Test results: PMC11137178, “Protein disulfide isomerase-9 interacts with the lumenal region of the transmembrane endoplasmic reticulum stress sensor kinase, IRE1, to modulate the unfolded protein response in Arabidopsis” (Frontiers in Plant Science, 2024)
Changes are numbered by the printed parent chain. Names and notes keep the numbering of the source. Blank lines part the entries; values can stand above or below the binder they belong to.

Experiments:
PDI9:mCherry-KDEL = biological target: T1, PDI9:mCherry-KDEL (Arabidopsis thaliana, UniProt O48773 25-440); assay: FRET or BRET; FLIM-FRET in living Arabidopsis leaf mesophyll protoplasts coexpressing the GFP donor (on IRE1) and the mCherry acceptor (on PDI9), 16-18 h after transfection; GFP lifetime per region of interest; E = (1 - ti/t0) x 100% against single-transfected GFP:IRE1; settings: partners not purified
T1 construct: Protein disulfide isomerase-9 (PDI9, PDI-M subfamily), Arabidopsis thaliana, At2g32920; made from the earlier construct PDI9:GFP-KDEL (Yuen et al., 2013) by exchanging GFP for mCherry; also called PDI9:Cherry-KDEL; PDI9:RFP; source: Arabidopsis leaf mesophyll protoplasts, transiently transfected, in living cells; not shown: mCherry-KDEL, C-terminal, kept
T1 sequence (looked up): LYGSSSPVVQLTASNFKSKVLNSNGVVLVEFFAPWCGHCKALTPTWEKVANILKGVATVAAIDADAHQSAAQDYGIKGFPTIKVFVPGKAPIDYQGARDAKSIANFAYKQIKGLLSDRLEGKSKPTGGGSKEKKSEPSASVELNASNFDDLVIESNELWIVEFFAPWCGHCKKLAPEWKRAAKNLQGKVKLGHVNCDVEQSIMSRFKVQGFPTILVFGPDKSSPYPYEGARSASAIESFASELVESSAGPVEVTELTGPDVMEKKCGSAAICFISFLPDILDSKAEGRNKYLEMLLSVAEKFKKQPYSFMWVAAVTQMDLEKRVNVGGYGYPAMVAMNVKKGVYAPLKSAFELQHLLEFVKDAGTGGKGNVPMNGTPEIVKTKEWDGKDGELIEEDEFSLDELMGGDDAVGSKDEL

PDI9(C63A):mCherry-KDEL = biological target: T2, PDI9(C63A):mCherry-KDEL (Arabidopsis thaliana, UniProt O48773 25-440, C63A); assay: as above; settings: partners not purified
T2 construct: PDI9, Arabidopsis thaliana, At2g32920; as m1 with the second cysteine of the first thioredoxin active site (CGHC to CGHA) changed; Parent construct m1; source: Arabidopsis leaf mesophyll protoplasts, transiently transfected, in living cells; not shown: mCherry-KDEL, C-terminal, kept
T2 sequence (looked up): T1 sequence (looked up) with C39A

GFP donor fluorescence lifetime (PDI9:mCherry-KDEL): 2.31 ns | GFP donor fluorescence lifetime (PDI9(C63A):mCherry-KDEL): 2.42 ns
B1: GFP : IRE1B (receptor, Arabidopsis thaliana, UniProt Q93VJ2 22-881, looked up)
chain: FKGSEISKFYDKSISNQISQSDRESGYVLVSTVDGSISLVDMSSQKLDWTFHTNEPIYSSYQAPHYHYTTDEERSSVLGDDFYMDCDKDWRLYNSSVRKGKRVNEIVDASEFIGTLPYTSTDRIVLGKKDTSVFLLDWKTGKLVKRYRMDELYSNTVVENDKEKAIVLSKEAPLLFGSGFKKSEDFPELVYIERKDFKIQCISKFGDVLWSVSYAKMEAKLQNHESVQFISGLSSSVGKNQFPLSYTTSVPMVQLRNVKYETLFPRLGFLDEALYLPFQDRKPNQLAIGDGNQLTLPGNKEAEEVLSLPLPETVISQITDIIDGSTKQAGFASKFSGLIVLIFGFCVTMLSVCGLFFYRLRQSIRIKEPYVSEVPIATPKKKKSKKNGTTKAVHKKENGFISGGNKDPSHEENEKRLLTAFPGLNNSSAEGYRVGKLFVSNKEIAKGSNGTVVLEGSYEGRLVAVKRLVQSHHDVAQKEILNLMASDKHSNIVRWYGVDQDEHFIYISLELCACSLNDLIYASSALLESPMASSSIHSIQINPIFENGKGVELWKENGHPSPVLLKLMRDIVAGLVHLHDIGIVHRDLKPQNVLIVKNSSLCAKLSDMGISKRLPADTSALTRNSTGLGSGSSGWQAPEQLRNERQTRAVDLFSLGCVLFFCMTGGKHPYGDNYERDVNVLNDQKDLFLIESLPEAVHLLTGLLNPDPNLRPRAQDVMHHPLFWNSDMRLSFLRDASDRVELENREEGSQLLAALESTAAVTLNGRWDEKLDSIFLDNIGRYRRYKFDSIRDLLRVIRNKLNHYRELPKELQELLGSVPEGFERYFSSRFPKLLIQVYTVLFDYCNNEEFFFKYSKTTVF
notes: IRE1B, Arabidopsis thaliana, At5g24360; mature polypeptide region amplified from Col-0 genomic DNA and placed after the IRE1B signal peptide and GFP; Construct order: IRE1B signal peptide, GFP, mature IRE1B; source: Arabidopsis leaf mesophyll protoplasts, transiently transfected; in living cells (FLIM-FRET) and in protoplast extract (co-I.P.); not shown: GFP (eGFP S65T), N-terminal, kept

GFP donor fluorescence lifetime (PDI9:mCherry-KDEL): 2.29 ns | GFP donor fluorescence lifetime (PDI9(C63A):mCherry-KDEL): 2.42 ns
B2: GFP : IRE1A (receptor, Arabidopsis thaliana, UniProt Q9C5S2 31-841, looked up)
chain: DDVTYPIVPSSPGRRSILQIRREPPTEPNTKLVVDRDGKVFLKQQPKETPYWSFSTGSPMHSLYQAPANNNTENATEITRPHIIVEYLNNSKAATTVDGYHNWTVQEFFRQKPLVTDDGVTLGSETTSAYLVDGRSGRLIHVYKSTGDTKITNALVKPASTEDFVNEPLLIRRTDSKLEHFSKTTGKLVWNLTVSHFRAALLCDPVFNSGYDLGPKLQTGIYMPLLCGSQIDVRGPEIVIRVLHDQPMNVKMLPSPSLNHFESENSIMPFGKARESRKLQEQHKQKYTYLFGQWSPVKLLAPLVLLGVVVSVFIKKFSSRGSDVSLKAGPSKKKKNRKSAKDTNRQSVPRGQDQFELIEGGQMLLGFNNFQSGATDGRKIGKLFLSSKEIAKGSNGTVVFEGIYEGRPVAVKRLVRSHHEVAFKEIQNLIASDQHTNIIRWYGVEYDQDFVYLSLERCTCSLDDLIKSYLEFSMTKVLENNDSTEGVAAYKIQLDSLEGVIKGNNFWKVGGHPSPLMLKLMRDIVCGIVHLHELGIVHRDLKPQNVLISKDMTLSAKLSDMGISKRMSRDMSSLGHLATGSGSSGWQAPEQLLQGRQTRAVDMFSLGCVIFYTITGCKHPFGDDLERDVNIVKNKVDLFLVEHVPEASDLISRLLNPDPDLRPSATEVLLHPMFWNSEMRLSFLRDASDRVELENREADSEILKAMESTAPVAIGGKWDEKLEPVFITNIGRYRRYKYDSIRDLLRVIRNKLNHHRELPPEIQELVGTVPEGFDEYFAVRFPKLLIEVYRVISLHCREEEVFRKYFKCDII
notes: IRE1A (inositol-requiring enzyme-1 kinase), Arabidopsis thaliana, At2g17520; mature polypeptide region amplified from Col-0 genomic DNA and placed after the IRE1A signal peptide and GFP; Construct order: IRE1A signal peptide, GFP, mature IRE1A; source: Arabidopsis leaf mesophyll protoplasts, transiently transfected; in living cells (FLIM-FRET) and in protoplast extract (co-I.P.); not shown: GFP …
